# Results from publication PMC6742228.
# Target: A/Puerto Rico/8/1934 (H1) HA (influenza A virus A/Puerto Rico/8/1934 (H1N1)) (UniProt P03452)
Substance,"HA-pseudovirus neutralization titer (IC95), 293T cells [µg/mL]","Plaque reduction titer (IC50), replicating virus on MDCK cells [µg/mL]"
MAb C179 (antibody),0.31,27.7
MAb CR6261 (antibody),0.09,–
MAb FI6 (antibody),0.11,3.7
